Reference: US20260008817A1, “CYCLIC PEPTIDE OR SALT THEREOF, AND USES THEREOF” (FUJIFILM Corporation, priority 2023, published 2026)
Positions of bridges follow the written chain, without caps; N, C: chain ends. No end group written: not given here. COCH2 = acetyl group that carries the bridge

These substances were tested against T1, Recombinant Human FGFR1 alpha (IIIc) Fc Chimera Protein (Homo sapiens, UniProt P11362) (assay: ELISA binding affinity of enzymatically synthesized peptide to FGFR). Details: ELISA luminescence signal at 10 nmol/L peptide, SEQ ID NO: 239 standardized to 1; enzyme synthesis product.
T1 construct: purchased R&D systems 658-FR-050
T1 sequence (P11362 with tags, fused parts or gaps limits assumed): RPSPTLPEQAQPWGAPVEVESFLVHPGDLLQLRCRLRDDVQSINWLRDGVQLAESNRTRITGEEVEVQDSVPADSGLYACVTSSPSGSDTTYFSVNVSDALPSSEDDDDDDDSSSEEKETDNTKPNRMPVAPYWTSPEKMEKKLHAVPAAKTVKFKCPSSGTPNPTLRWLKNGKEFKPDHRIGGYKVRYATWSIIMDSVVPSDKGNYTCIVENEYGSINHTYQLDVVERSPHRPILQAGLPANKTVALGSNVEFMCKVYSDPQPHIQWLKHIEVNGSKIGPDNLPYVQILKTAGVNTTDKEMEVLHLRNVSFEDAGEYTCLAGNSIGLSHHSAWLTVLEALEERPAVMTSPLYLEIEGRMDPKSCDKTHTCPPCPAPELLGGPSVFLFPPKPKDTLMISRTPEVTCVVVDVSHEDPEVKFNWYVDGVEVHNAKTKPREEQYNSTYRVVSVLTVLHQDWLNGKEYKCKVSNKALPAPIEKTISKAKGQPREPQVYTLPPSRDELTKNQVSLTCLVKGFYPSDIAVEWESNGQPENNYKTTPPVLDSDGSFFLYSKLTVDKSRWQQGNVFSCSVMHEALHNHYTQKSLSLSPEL
Outline: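 Cell-free PUREfrex-translated cyclic peptides (Myc/HiBiT-tagged, quantified by HiBiT luminescence) bound 3 h at room temperature to immobilized FGFR1α(IIIc)-Fc, detected with anti-Myc and chemiluminescence. FGFR-specific signal at 10 nmol/L normalized to a reference cyclic peptide and graded A–D.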

Row | Substance | Evaluation result of binding affinity to FGFR
1 | 269 (HCLWQWTPQTHFVKL; Description of Artificial Sequence: Cyclic peptide) [compound 269] | A (0.7 or more)
2 | 270 (QCWWTLQVWSYPFHKH; Description of Artificial Sequence: Cyclic peptide) [compound 270] | C (0.1 or more and less than 0.5)
3 | 271 (LCQLGVYTYVALFYKF; Description of Artificial Sequence: Cyclic peptide) [compound 271] | C (0.1 or more and less than 0.5)
4 | 272 (QCDWVIWQWDPPYIKV; Description of Artificial Sequence: Cyclic peptide) [compound 272] | C (0.1 or more and less than 0.5)
5 | 273 (PCWWATQIWTYPFYKV; Description of Artificial Sequence: Cyclic peptide) [compound 273] | C (0.1 or more and less than 0.5)
6 | 274 (FCIYTFSRESGLLWKQ; Description of Artificial Sequence: Cyclic peptide) [compound 274] | A (0.7 or more)
7 | 275 (LCPLYAWQTLYQYGWK(COCH2)V; thioether 2-16 (inferred)) [compound 275] | A (0.7 or more)
8 | 276 (ECIYTFDPQRHPVLVK(COCH2)V; thioether 2-16 (inferred)) [compound 276] | C (0.1 or more and less than 0.5)
9 | 277 (TCPVWAWHQAFQFGWK(COCH2)I; thioether 2-16 (inferred)) [compound 277] | C (0.1 or more and less than 0.5)
10 | 278 (ICPLYGDQGQAWQYGWK(COCH2)L; thioether 2-17 (inferred)) [compound 278] | A (0.7 or more)
11 | 279 (QCLQKVGYLLWQFGWSK(COCH2)I; thioether 2-17 (inferred)) [compound 279] | C (0.1 or more and less than 0.5)

The next lines start with the values.

Row | Evaluation result of binding affinity to FGFR | Substance
12 | A (0.7 or more) | 280 (PCPVWGDYGAVHQYGWK(COCH2)V; thioether 2-17 (inferred)) [compound 280]
13 | C (0.1 or more and less than 0.5) | 281 (YCVYTFDAQDVWRPLRK(COCH2)V; thioether 2-17 (inferred)) [compound 281]
14 | C (0.1 or more and less than 0.5) | 282 (FCIYSWNWNNLVRPEFRK(COCH2)V; thioether 2-18 (inferred)) [compound 282]
15 | B (0.5 or more and less than 0.7) | 283 (WCWLIPTPWPGVYQFSPK(COCH2)A; thioether 2-18 (inferred)) [compound 283]
16 | C (0.1 or more and less than 0.5) | 284 (QCRITLLTIYQWKYAWHK(COCH2)E; thioether 2-18 (inferred)) [compound 284]
17 | C (0.1 or more and less than 0.5) | 285 (QCSWWYVQVWTYPFHVLK(COCH2)G; thioether 2-18 (inferred)) [compound 285]
18 | C (0.1 or more and less than 0.5) | 286 (HCLWSLHSFYTFKAWAK(COCH2)I; thioether 2-17 (inferred)) [compound 286]
19 | C (0.1 or more and less than 0.5) | 287 (YCPFEVYSWWVPKWHK(COCH2)I; thioether 2-16 (inferred)) [compound 287]
20 | C (0.1 or more and less than 0.5) | 288 (LCHLVFQFNPDTGKLWPK(COCH2)Y; thioether 2-18 (inferred)) [compound 288]
21 | C (0.1 or more and less than 0.5) | 289 (DCPWSVFSWYIPIYNK(COCH2)I; thioether 2-16 (inferred)) [compound 289]
22 | A (0.7 or more) | 290 (FCVYTFDANAQSLDDALNK(COCH2)Q; thioether 2-19 (inferred)) [compound 290]
